# Read-outs that look alike come from different tables or passages of the source. Ends that are not written are not given here. * marks the point of attachment. FITC = O=C1OC2(c3ccc(O)cc3Oc3cc(O)ccc32)c2ccc(NC(=S)*)cc21
# T1: G3BP2 NTF2 domain (human, UniProt Q9UN86 11-133)
# T1 sequence (looked up): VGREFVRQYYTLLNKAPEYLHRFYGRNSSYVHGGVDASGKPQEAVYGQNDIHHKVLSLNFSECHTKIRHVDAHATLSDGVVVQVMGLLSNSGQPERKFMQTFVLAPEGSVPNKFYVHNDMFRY
# T2: G3BP2 NTF2 domain, His-GST-tagged (human, UniProt Q9UN86 11-133)
# T2 sequence (looked up): T1 sequence (looked up)
# What was measured:
# Conditions in all cases: both partners purified
# G3BP2 NTF2 domain = target: T1, G3BP2 NTF2 domain
# USP7 MATH domain = USP7 MATH domain (human, UniProt Q93009 68-195)
# USP7 MATH domain, sequence (Q93009 68-195): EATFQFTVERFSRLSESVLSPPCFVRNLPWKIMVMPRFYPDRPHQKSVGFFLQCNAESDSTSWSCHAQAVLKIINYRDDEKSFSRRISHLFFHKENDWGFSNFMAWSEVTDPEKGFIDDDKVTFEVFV
# Radixin FERM domain [1] = target: T3, Radixin FERM domain (human, UniProt P35241 5-295)
# T3 construct: also called RDX
# T3 sequence (P35241 5-295): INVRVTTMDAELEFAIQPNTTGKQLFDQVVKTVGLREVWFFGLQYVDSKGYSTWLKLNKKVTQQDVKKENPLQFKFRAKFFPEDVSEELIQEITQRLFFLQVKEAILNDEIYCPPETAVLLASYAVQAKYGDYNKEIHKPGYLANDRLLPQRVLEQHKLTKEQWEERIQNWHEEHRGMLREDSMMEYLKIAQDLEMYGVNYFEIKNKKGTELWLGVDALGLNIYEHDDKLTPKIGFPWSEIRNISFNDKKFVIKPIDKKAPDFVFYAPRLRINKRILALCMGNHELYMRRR
# G3BP1 NTF2 domain = G3BP1 NTF2 domain (human, UniProt Q13283 11-133)
# G3BP1 NTF2 domain, sequence (Q13283 11-133): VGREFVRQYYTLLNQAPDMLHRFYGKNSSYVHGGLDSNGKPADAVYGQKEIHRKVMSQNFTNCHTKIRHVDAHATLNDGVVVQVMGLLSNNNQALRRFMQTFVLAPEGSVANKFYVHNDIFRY
# Ezrin FERM domain [2] = target: T4, Ezrin FERM domain (human, UniProt P15311 2-296)
# T4 construct: also called EZR FERM
# T4 sequence (P15311 2-296): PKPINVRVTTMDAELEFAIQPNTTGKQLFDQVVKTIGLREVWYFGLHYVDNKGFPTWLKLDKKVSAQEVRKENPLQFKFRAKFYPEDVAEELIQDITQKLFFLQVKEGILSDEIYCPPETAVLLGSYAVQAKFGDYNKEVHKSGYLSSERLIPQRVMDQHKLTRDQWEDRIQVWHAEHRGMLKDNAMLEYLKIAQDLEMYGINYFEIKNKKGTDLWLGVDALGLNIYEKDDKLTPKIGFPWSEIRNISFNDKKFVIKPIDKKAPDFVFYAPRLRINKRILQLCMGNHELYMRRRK
# Radixin FERM domain [3] = target: T5, Radixin FERM domain (human, UniProt P35241 5-295)
# T5 construct: also called RDX; RDX FERM
# T5 sequence (P35241 5-295): as the sequence (P35241 5-295) above
# Ezrin FERM domain [4] = target: Ezrin FERM domain (human, UniProt P15311 2-296)
# Target sequence in this assay (P15311 2-296): as the sequence (P15311 2-296) above
# [5] = target: G3BP1 NTF2 domain, His-GST-tagged (human, UniProt Q13283 11-133)
# G3BP1 NTF2 domain, His-GST-tagged, sequence (Q13283 11-133): as the sequence (Q13283 11-133) above
# [6] = target: T2, G3BP2 NTF2 domain, His-GST-tagged
Binder,IC50 (G3BP2 NTF2 domain),Ki (G3BP2 NTF2 domain),IC50 (G3BP1 NTF2 domain),further results
PVPPIEFGVSPKDSDY [PRRC2B peptide 1780-1794],53 µM,19 µM,–,–
{FITC}-DYSQPSTSSSIIY (also called MDM2 probe peptide) [MDM2 FITC-DYSQPSTSSSIIY],–,–,–,Kd (USP7 MATH domain): 0.49 ± 0.06 µM
{FITC}-YYSVNTFKEHHSTPTI [FITC-Kirrel3 peptide 668-683],–,–,–,Kd (Radixin FERM domain [1]): 0.485 µM
QGLPLEFGASAETVRY [NSP3 peptide 958-972 (Sars-CoV)],130 µM,47 µM,320 µM,Ki (G3BP1 NTF2 domain): 119 µM
{FITC}-YYSVNTFKEHHSTPTI (also called Kirrel probe peptide) [Kirrel FITC-YYSVNTFKEHHSTPTI],–,–,–,Kd (Ezrin FERM domain [2]): 1.4 ± 0.1 µM; Kd (Radixin FERM domain [3]): 0.485 ± 0.003 µM
AQMQGPYNFIQDSMLD [CAPRIN1 peptide 364-379],29 µM,–,–,–
APRITFGGPTDSTDNY [N peptide 13-27 (Sars-CoV)],–,–,10 µM,–
PSKLPTFGAPEQLVDY [TRIM25 peptide 400-414],53 µM,17 µM,120 µM,Ki (G3BP1 NTF2 domain): 46 µM
ESLPFSFGTLSSWELE [DDIT3 peptide 4-19],30 µM,12 µM,–,–
APRAVTFGDNNDNNTY [N peptide 6-20 (Mers1)],80 µM,–,130 µM,Ki (G3BP1 NTF2 domain): 51 µM
NLQFGALQFGSEPVY [UBAP2L peptide 515-528],79 µM,32 µM,104 µM,–
VDTSNSFEVLAVEDTQY [NSP3 peptide 1996-2011 (Sars-CoV)],–,–,–,IC50 (Radixin FERM domain [1]): 200 µM; Ki (Radixin FERM domain [1]): 56.2 µM; IC50 (Ezrin FERM domain [4]): 200 µM; Ki (Ezrin FERM domain [4]): 218 µM
{FITC}-APRITFGGPSDS [N FITC-APRITFGGPSDS],–,–,–,Kd [5]: 3.2 ± 0.1 µM; Kd [6]: 2.1 ± 0.1 µM

# Source: article PMC8605023 (Nature Communications, 2021)
